Values quoted from earlier work as cited in US20200354411A1, “Chimeric Molecule for Targeting c-Myc in Cells” (priority 2017, published 2020).

Test system: A549 cells
Conditions: shown in the art

B1: Omomyc: myc dominant negative peptide able to bind E-Box promoter and prevent c-myc binding, SEQ ID NO: 6 (peptide)
chain: TEENVKRRTHNVLERQRRNELKRSFFALRDQIPELENNEKAPKVVILKKATAYILSVQAETQKLISEIDLLRKQNEQLKHKLEQLRNSCA
modifications: Omomyc
concentration at which treated cells showed apoptosis: 10 µM
